# From ChEMBL document CHEMBL1122728, “Derivatives of 2-methyl-1,4-naphthoquinone as substrates and inhibitors of the vitamin K dependent carboxylase” (J Med Chem, 1984)
# Values joined by “and” are separate entries in the source; they are usually repeats but may differ in a detail not shown here. Equal values may be shown once.
# B1: Vitamin K-dependent gamma-carboxylase (Rattus norvegicus), O88496 (protein)
# chain: MAVHRGSARAAPASDKVQKNKPAQTSGLEQGSRMARIFGFEWADLSSWQSVVTLLNRPTDPANLAVFRFLFAFLMLLDIPQERGLSSLDRKYLDGLDVCRFPLLDALRPLPLDWMYLVYTIMFLGALGMMLGLWYRLSCMLFLLPYWYVFLLDKTSWNNHSYLYGLLAFQLTFMDANHYWSVDGLLSAQKKNAHVPLWNYTVLRGQIFIVYFIAGVKKLDADWVEGYSMEHLSRHWLFSPFKLVLSEELTSLLVVHWCGLLLDLSAGFLLFFDASRPIGLVFVSYFHCMNSQLFSIGMFPYVMLASSPLFCSAEWPRKLVARCPKRLQELLPAKAAPRPSASCVYKRARAKAGQKPGLRHHLGTVFTLLYLLEQLFLPYSHFLTQGYNNWTNGLYGYSWDMMVHSRSHQHVKITYRDGLTGELGYLNPGVFTQSRRWKDHADMLKQYATCLSLLLPKYNVTEPQIYFDIWVSINDRFQQRLFDPRVDIVQAVWSPFRRTPWVQPLLMDLSPWRTKLQDIKSSLDNHTEVVFIADFPGLHLENFVSEDLGNTSIQLLQGEVTVELVAEQKNQTLREGEKMQLPAGEYHKVYTVSSSPSCYMYIYVNTTEVALEQDLAYLQELKEKVENGSETGPLPPELQPLLEGEVKGGPEPTPLVQTFLRRQRKLQEIERRRNSPLHERFLRFVLRKLYVFRRSFLMTRISLRNLLFGRPSLEQLAQEVTYANLRPFEPVDESSASNTDSSDPHPSEPDSEHVHSEL
# Tests used:
# [1] = compound: COC(=O)[C@H](CC(C)C)NC(=O)[C@H](CCC(=O)O)NC(=O)[C@H](CCC(=O)O)NC(=O)CCCC1=CC(=O)c2ccccc2C1=O; experiment: (§1) In vitro inhibitory effect Vitamin K dependent carboxylase of Phe-Leu-Glu-Glu-Leu in rat microsomal protein; format: microsomes; conditions: Microsome
# [2] = compound: COC(=O)[C@H](CC(C)C)NC(=O)[C@H](CCC(=O)O)NC(=O)[C@H](CCC(=O)O)NC(=O)CCCC1=C(C)C(=O)c2ccccc2C1=O; experiment: as §1; format: microsomes; conditions: Microsome
protein,measurement,setting,value
B1,Km,[1],85 µM
same,Km,[2],44 µM and < 50 µM
